Experimental data: PMC9918737

What was measured:
[1] = target: ubH2B mono-nucleosome (H2B mono-ubiquitinated at lysine 120) (UniProt P0C0S8); test: single-molecule magnetic tweezers (force-jump); 409-bp nucleosome tethered between coverslip and bead, 83 nM FACT in the flow cell, force jumps between 0.1 pN and 11 pN (H2B-nucleosome) or 6 pN (ubH2B-nucleosome), Kd from the ratio of free to FACT-bound states, 25 °C
[2] = target: unmodified H2B mono-nucleosome (UniProt P0C0S8)
[3] = target: ubH2B mono-nucleosome (H2B mono-ubiquitinated at lysine 120) (UniProt P0C0S8)

Kd [1]: 8 nM | tension at which the H2B-nucleosome is completely disrupted in the presence of FACT (magnetic tweezers, repeated stretching) [2]: < 10 pN | rupture force of the inner DNA wrap of ubH2B-nucleosome in the presence of FACT (magnetic tweezers) [3]: 20 pN | rupture force of the outer DNA wrap of ubH2B-nucleosome in the presence of FACT (magnetic tweezers) [3]: 10 pN
Substance: recombinant FACT complex (Flag-SPT16 and His6-SSRP1) (from UniProt Q9Y5B9 1-1047; Q08945 1-709)
